Data taken from US6641997B1, “Assays for screening compounds which interact with cation channel proteins, mutant prokaryotic cation channel proteins, and uses thereof” (The Rockefeller University, priority 1998, dated 2003).

How the values were obtained:
[1] = biological target: T1, mutant kcsa K+ channel (Q58A, T61S, R64D) (Streptomyces lividans, UniProt P0A334, P2A/Q58A/R64D/T61S); test: Competition binding assay: unlabeled toxin against labeled Agitoxin2 on mutant kcsa K+ channel resin; conditions: for Kd: labeled toxin 0.06 μM, Kdhot 0.62 μM, FIG. 11B, read-out: competing toxin dissociation constant Kdcold; for decrease of affinity caused by the toxin mutation: relative to wild type agitoxin2
T1 construct: made in house; host or cells: E. coli XL-1 Blue
T1 sequence (P0A334 1-158 P2A/Q58A/T61S/R64D limits assumed): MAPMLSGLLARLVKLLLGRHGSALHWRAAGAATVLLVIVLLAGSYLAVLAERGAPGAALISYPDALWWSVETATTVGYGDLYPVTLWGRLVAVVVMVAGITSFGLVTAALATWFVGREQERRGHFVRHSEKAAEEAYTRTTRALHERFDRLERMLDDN
Excerpt: (§1) Three mutations (Q58A, T61S, R64D) were introduced into the kcsa K^+ channel gene to modify its pore region sequence using PCR mutagenesis and confirmed by DNA sequencing. The gene also contained a mutation at the second residue (P2A) to introduce an ncol restriction endonuclease site and it was lacking the last two carboxyl terminal residues (both Arg) to avoid proteolysis during the protein preparation. This gene was cloned into the pQE60 vector for expression with a carboxyl terminal thrombin and hexahistidine fusion. Channel protein was expressed in XL-1 Blue strain of E. coli (Stratagene) by induction with […] at a concentration of 1.0 mM. Three hours following induction bacteria were sonicated in 50 mM Tris buffer (7.5), 100 mM KCl, 10 mM Mg2SO4, 25 mg DNAse 1, 250 mM sucrose, in addition to pepstatin, leupeptin, and PMSF. The channel was extracted in the same solution containing 40 mM decylmaltoside (Anatrace) at room temperature. Following centrifugation the supernatant was bound to cobalt resin (Talon) at a protein to resin ratio that will saturate the resin. The resin was washed, and detergent concentration was lowered to 10.0 mM. One mL columns were prepared. The control resin (no channel) was handled in the same manner. The resin preparation was the same for mass spectrometry and binding studies.
(§2) Wild type and mutant agitoxin2 were prepared (10). Tritiated N-ethylmaleimide (NEN Life Sciences) was conjugated to agitoxin2 D20C (14). Binding was performed in a 300 μL volume containing 50 mM Tris (7.5), 100 mM KCl, 10 mM declymaltoside, and 0.3 μL of cobalt resin saturated with the mutant kcsa K^+ channel for 30 minutes at room temperature. Following brief centrifugation the supernatant was removed, resin was applied to a filter, rinsed briefly with ice cold buffer, and then counted in a scintillation counter. All binding measurements were made with a paired control containing a saturating concentration (200 times KD) of unlabeled wild type agitoxin2 to determine nonspecific binding. The competition assay was carried out under the same conditions. Labeled Agitoxin2 at 0.06 μM was always present and unlabeled toxin was added to compete with bound labeled toxin.
as §2, with “17. Wild” for “Wild”, “Kd)” for “KD)”

[2] = biological target: T1, mutant kcsa K+ channel (Q58A, T61S, R64D); test: Mutant kcsa K+ channel cobalt column screen of scorpion venom, eluate analysed by MALDI-TOF mass spectrometry; assay type: binding; conditions: 40 mg Leiurus quinquestriatus hebraeus venom on 1 mL column, imidazole elution
Excerpt: FIG. 10. Mass Spectra of scorpion toxins before and after channel column purification MALDI-TOF mass spectra of venom before purification (A) and after elution from a cobalt column in the absence (B) and presence (C) of attached mutant kesa K^+ channel. The accuracy of the mass measurements (±0.3 Da) permitted identification of most of the major peaks in the mass spectra searched from databases of known toxins of the Leiurus quinquestratus hebraeus scorpion (D). The kesa-binding component labeled * could not be assigned to a known scorpion toxin. The component labeled X (4193.0 Da) binds nonspecifically to the column and was not identified. MALDI_MS was performed with the MALDI matrix 4-hydroxy-α-cyano-cinnamic acid (16 of Example II).
as §1, with “Following centrifugation the supernatant was bound to cobalt resin (Talon) at a protein to resin ratio that will saturate the resin. The resin was washed, and detergent concentration was lowered to 10.0 mM. One mL columns were prepared. The control resin (no channel) was handled in the same manner. The resin preparation was the same for mass spectrometry and binding studies.” left out
Guided by knowledge of the toxin receptor on the Shaker K^+ channel, set forth in SEQ ID NO:4, three point mutations were introduced into the kcsa K^+ channel (SEQ ID NO: 1) that should render it sensitive to scorpion toxins (FIG. 9). […] The eluate was analyzed with MALDI-TOF mass spectrometry, focusing on the low mass range appropriate for scorpion toxins (about 4000 Da). […]

| Substance | Kd [1] | decrease of affinity caused by the toxin mutation [1] | binding to the channel column (mass peak in the eluate) [2] |
| --- | --- | --- | --- |
| K27A: Agitoxin2 mutant, Lys 27 substituted by alanine | 81 µM | 130 fold | – |
| N30A: Agitoxin2 mutant, Asn 30 substituted by alanine | 27 µM | 45 fold | – |
| agitoxin2 | 0.62 µM | – | dramatic enhancement of specific peaks |
| charybdotoxin | – | – | dramatic enhancement of specific peaks |
| chlorotoxin | – | – | did not bind |
